Broadly, the Kd is the equilibrium constant for the complex coming apart. A low value points to a tighter complex.

Sequences and labels used below:
B1: G52cA (heavy chain) (antibody, V domains shown)
VH: EVQLVESGGGLVKPGGSLRLSCSASGFDFDNAWMTWVRQPPGKGLEWVGRITGPAEGWSVDYAAPVEGRFTISRLNSINFLYLEMNNLRMEDSGLYFCARTGKYYDFWSGYPPGEEYFQDWGRGTLVTVSS
VL: SYELTQETGVSVALGRTVTITCRGDSLRSHYASWYQKKPGQAPILLFYGKNNRPSGVPDRFSGSASGNRASLTISGAQAEDDAEYYCSSRDKSGSRLSVFGGGTKLTVL
B2: E100jA (heavy chain) (antibody, V domains shown)
VH: EVQLVESGGGLVKPGGSLRLSCSASGFDFDNAWMTWVRQPPGKGLEWVGRITGPGEGWSVDYAAPVEGRFTISRLNSINFLYLEMNNLRMEDSGLYFCARTGKYYDFWSGYPPGEAYFQDWGRGTLVTVSS
VL: SYELTQETGVSVALGRTVTITCRGDSLRSHYASWYQKKPGQAPILLFYGKNNRPSGVPDRFSGSASGNRASLTISGAQAEDDAEYYCSSRDKSGSRLSVFGGGTKLTVL
B3: W100bA (heavy chain) (antibody, V domains shown)
VH: EVQLVESGGGLVKPGGSLRLSCSASGFDFDNAWMTWVRQPPGKGLEWVGRITGPGEGWSVDYAAPVEGRFTISRLNSINFLYLEMNNLRMEDSGLYFCARTGKYYDFASGYPPGEEYFQDWGRGTLVTVSS
VL: SYELTQETGVSVALGRTVTITCRGDSLRSHYASWYQKKPGQAPILLFYGKNNRPSGVPDRFSGSASGNRASLTISGAQAEDDAEYYCSSRDKSGSRLSVFGGGTKLTVL
B4: D58A (heavy chain) (antibody, V domains shown)
VH: EVQLVESGGGLVKPGGSLRLSCSASGFDFDNAWMTWVRQPPGKGLEWVGRITGPGEGWSVAYAAPVEGRFTISRLNSINFLYLEMNNLRMEDSGLYFCARTGKYYDFWSGYPPGEEYFQDWGRGTLVTVSS
VL: SYELTQETGVSVALGRTVTITCRGDSLRSHYASWYQKKPGQAPILLFYGKNNRPSGVPDRFSGSASGNRASLTISGAQAEDDAEYYCSSRDKSGSRLSVFGGGTKLTVL
B5: S56A (heavy chain) (antibody, V domains shown)
VH: EVQLVESGGGLVKPGGSLRLSCSASGFDFDNAWMTWVRQPPGKGLEWVGRITGPGEGWAVDYAAPVEGRFTISRLNSINFLYLEMNNLRMEDSGLYFCARTGKYYDFWSGYPPGEEYFQDWGRGTLVTVSS
VL: SYELTQETGVSVALGRTVTITCRGDSLRSHYASWYQKKPGQAPILLFYGKNNRPSGVPDRFSGSASGNRASLTISGAQAEDDAEYYCSSRDKSGSRLSVFGGGTKLTVL
B6: K97A (heavy chain) (antibody, V domains shown)
VH: EVQLVESGGGLVKPGGSLRLSCSASGFDFDNAWMTWVRQPPGKGLEWVGRITGPGEGWSVDYAAPVEGRFTISRLNSINFLYLEMNNLRMEDSGLYFCARTGAYYDFWSGYPPGEEYFQDWGRGTLVTVSS
VL: SYELTQETGVSVALGRTVTITCRGDSLRSHYASWYQKKPGQAPILLFYGKNNRPSGVPDRFSGSASGNRASLTISGAQAEDDAEYYCSSRDKSGSRLSVFGGGTKLTVL
B7: E100iA (heavy chain) (antibody, V domains shown)
VH: EVQLVESGGGLVKPGGSLRLSCSASGFDFDNAWMTWVRQPPGKGLEWVGRITGPGEGWSVDYAAPVEGRFTISRLNSINFLYLEMNNLRMEDSGLYFCARTGKYYDFWSGYPPGAEYFQDWGRGTLVTVSS
VL: SYELTQETGVSVALGRTVTITCRGDSLRSHYASWYQKKPGQAPILLFYGKNNRPSGVPDRFSGSASGNRASLTISGAQAEDDAEYYCSSRDKSGSRLSVFGGGTKLTVL
B8: F100aA (heavy chain) (antibody, V domains shown)
VH: EVQLVESGGGLVKPGGSLRLSCSASGFDFDNAWMTWVRQPPGKGLEWVGRITGPGEGWSVDYAAPVEGRFTISRLNSINFLYLEMNNLRMEDSGLYFCARTGKYYDAWSGYPPGEEYFQDWGRGTLVTVSS
VL: SYELTQETGVSVALGRTVTITCRGDSLRSHYASWYQKKPGQAPILLFYGKNNRPSGVPDRFSGSASGNRASLTISGAQAEDDAEYYCSSRDKSGSRLSVFGGGTKLTVL
B9: P100gA (heavy chain) (antibody, V domains shown)
VH: EVQLVESGGGLVKPGGSLRLSCSASGFDFDNAWMTWVRQPPGKGLEWVGRITGPGEGWSVDYAAPVEGRFTISRLNSINFLYLEMNNLRMEDSGLYFCARTGKYYDFWSGYPAGEEYFQDWGRGTLVTVSS
VL: SYELTQETGVSVALGRTVTITCRGDSLRSHYASWYQKKPGQAPILLFYGKNNRPSGVPDRFSGSASGNRASLTISGAQAEDDAEYYCSSRDKSGSRLSVFGGGTKLTVL
B10: Y98A (heavy chain) (antibody, V domains shown)
VH: EVQLVESGGGLVKPGGSLRLSCSASGFDFDNAWMTWVRQPPGKGLEWVGRITGPGEGWSVDYAAPVEGRFTISRLNSINFLYLEMNNLRMEDSGLYFCARTGKAYDFWSGYPPGEEYFQDWGRGTLVTVSS
VL: SYELTQETGVSVALGRTVTITCRGDSLRSHYASWYQKKPGQAPILLFYGKNNRPSGVPDRFSGSASGNRASLTISGAQAEDDAEYYCSSRDKSGSRLSVFGGGTKLTVL
B11: D30A (heavy chain) (antibody, V domains shown)
VH: EVQLVESGGGLVKPGGSLRLSCSASGFDFANAWMTWVRQPPGKGLEWVGRITGPGEGWSVDYAAPVEGRFTISRLNSINFLYLEMNNLRMEDSGLYFCARTGKYYDFWSGYPPGEEYFQDWGRGTLVTVSS
VL: SYELTQETGVSVALGRTVTITCRGDSLRSHYASWYQKKPGQAPILLFYGKNNRPSGVPDRFSGSASGNRASLTISGAQAEDDAEYYCSSRDKSGSRLSVFGGGTKLTVL
B12: 10E8 IgG alanine variant E53A (heavy chain, Kabat) (antibody, V domains shown)
VH: EVQLVESGGGLVKPGGSLRLSCSASGFDFDNAWMTWVRQPPGKGLEWVGRITGPGAGWSVDYAAPVEGRFTISRLNSINFLYLEMNNLRMEDSGLYFCARTGKYYDFWSGYPPGEEYFQDWGRGTLVTVSS
VL: SYELTQETGVSVALGRTVTITCRGDSLRSHYASWYQKKPGQAPILLFYGKNNRPSGVPDRFSGSASGNRASLTISGAQAEDDAEYYCSSRDKSGSRLSVFGGGTKLTVL
B13: D28A (heavy chain) (antibody, V domains shown)
VH: EVQLVESGGGLVKPGGSLRLSCSASGFAFDNAWMTWVRQPPGKGLEWVGRITGPGEGWSVDYAAPVEGRFTISRLNSINFLYLEMNNLRMEDSGLYFCARTGKYYDFWSGYPPGEEYFQDWGRGTLVTVSS
VL: SYELTQETGVSVALGRTVTITCRGDSLRSHYASWYQKKPGQAPILLFYGKNNRPSGVPDRFSGSASGNRASLTISGAQAEDDAEYYCSSRDKSGSRLSVFGGGTKLTVL
B14: T52A (heavy chain) (antibody, V domains shown)
VH: EVQLVESGGGLVKPGGSLRLSCSASGFDFDNAWMTWVRQPPGKGLEWVGRIAGPGEGWSVDYAAPVEGRFTISRLNSINFLYLEMNNLRMEDSGLYFCARTGKYYDFWSGYPPGEEYFQDWGRGTLVTVSS
VL: SYELTQETGVSVALGRTVTITCRGDSLRSHYASWYQKKPGQAPILLFYGKNNRPSGVPDRFSGSASGNRASLTISGAQAEDDAEYYCSSRDKSGSRLSVFGGGTKLTVL
B15: R95bA (light chain) (antibody, V domains shown)
VH: EVQLVESGGGLVKPGGSLRLSCSASGFDFDNAWMTWVRQPPGKGLEWVGRITGPGEGWSVDYAAPVEGRFTISRLNSINFLYLEMNNLRMEDSGLYFCARTGKYYDFWSGYPPGEEYFQDWGRGTLVTVSS
VL: SYELTQETGVSVALGRTVTITCRGDSLRSHYASWYQKKPGQAPILLFYGKNNRPSGVPDRFSGSASGNRASLTISGAQAEDDAEYYCSSRDKSGSALSVFGGGTKLTVL
B16: P100fA (heavy chain) (antibody, V domains shown)
VH: EVQLVESGGGLVKPGGSLRLSCSASGFDFDNAWMTWVRQPPGKGLEWVGRITGPGEGWSVDYAAPVEGRFTISRLNSINFLYLEMNNLRMEDSGLYFCARTGKYYDFWSGYAPGEEYFQDWGRGTLVTVSS
VL: SYELTQETGVSVALGRTVTITCRGDSLRSHYASWYQKKPGQAPILLFYGKNNRPSGVPDRFSGSASGNRASLTISGAQAEDDAEYYCSSRDKSGSRLSVFGGGTKLTVL
B17: N31A (heavy chain) (antibody, V domains shown)
VH: EVQLVESGGGLVKPGGSLRLSCSASGFDFDAAWMTWVRQPPGKGLEWVGRITGPGEGWSVDYAAPVEGRFTISRLNSINFLYLEMNNLRMEDSGLYFCARTGKYYDFWSGYPPGEEYFQDWGRGTLVTVSS
VL: SYELTQETGVSVALGRTVTITCRGDSLRSHYASWYQKKPGQAPILLFYGKNNRPSGVPDRFSGSASGNRASLTISGAQAEDDAEYYCSSRDKSGSRLSVFGGGTKLTVL
B18: S100cA (heavy chain) (antibody, V domains shown)
VH: EVQLVESGGGLVKPGGSLRLSCSASGFDFDNAWMTWVRQPPGKGLEWVGRITGPGEGWSVDYAAPVEGRFTISRLNSINFLYLEMNNLRMEDSGLYFCARTGKYYDFWAGYPPGEEYFQDWGRGTLVTVSS
VL: SYELTQETGVSVALGRTVTITCRGDSLRSHYASWYQKKPGQAPILLFYGKNNRPSGVPDRFSGSASGNRASLTISGAQAEDDAEYYCSSRDKSGSRLSVFGGGTKLTVL
B19: Y100eA (heavy chain) (antibody, V domains shown)
VH: EVQLVESGGGLVKPGGSLRLSCSASGFDFDNAWMTWVRQPPGKGLEWVGRITGPGEGWSVDYAAPVEGRFTISRLNSINFLYLEMNNLRMEDSGLYFCARTGKYYDFWSGAPPGEEYFQDWGRGTLVTVSS
VL: SYELTQETGVSVALGRTVTITCRGDSLRSHYASWYQKKPGQAPILLFYGKNNRPSGVPDRFSGSASGNRASLTISGAQAEDDAEYYCSSRDKSGSRLSVFGGGTKLTVL
B20: G100dA (heavy chain) (antibody, V domains shown)
VH: EVQLVESGGGLVKPGGSLRLSCSASGFDFDNAWMTWVRQPPGKGLEWVGRITGPGEGWSVDYAAPVEGRFTISRLNSINFLYLEMNNLRMEDSGLYFCARTGKYYDFWSAYPPGEEYFQDWGRGTLVTVSS
VL: SYELTQETGVSVALGRTVTITCRGDSLRSHYASWYQKKPGQAPILLFYGKNNRPSGVPDRFSGSASGNRASLTISGAQAEDDAEYYCSSRDKSGSRLSVFGGGTKLTVL

This experiment addresses soluble gp41 MPER peptide RRR-(656-683)-RRR. The experiment is described as follows: kinetic binding (ka/kd).
In turn, B1 returned a dissociation constant (Kd) of 11.1 nM. This lies in the double-digit nanomolar range.

In turn, B2 registered a dissociation constant Kd of 361 nM. As for B3, the figure is 93.1 nM; as for B4, 30.6 nM; as for B5, 10.9 nM. As for B6, the figure is 24.8 nM; as for B7, 433 nM. The value for B8 was 429 nM; that for B9 was 691 nM.

In turn, B10 returned a Kd of 27 nM. As for B11, the figure is 11.8 nM; as for B12, 395 nM. As for B13, the figure is 14.3 nM; as for B14, 10.9 nM; as for B15, 28.6 nM. As for B16, the figure is 757 nM; as for B17, 13 nM; as for B18, 9.65 nM.

With B19, the affinity, expressed as Kd, was 75.9 nM.

Molecule B20 came in with a Kd of 315 nM. This Kd is about 4.2-fold higher than that of the molecule before.

These data come from patent US20140348785A1 (published 2014).
